From the supplement of paper PMC9112550, “Optimization of the antimicrobial peptide Bac7 by deep mutational scanning” (BMC Biology, 2022)

test system: Escherichia coli TOP10; assay: shrunken log2 fold change of peptide-encoding DNA abundance (4.5 h post-induction vs induction); higher = less antimicrobial activity (less host growth inhibition); conditions: time post-induction: 4.5 h; library: site-saturation at positions 5, 18, 19, 20
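Further: peptides expressed intracellularly from a pBAD plasmid library in pooled LB shake-flask culture, induced with 0.3% L-arabinose, DNA abundance read by NGS, three biological replicates, DESeq2 with apeglm shrinkage.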

Row | Sequence | shrunken log2 fold change
1 | RRIRGRPPRLPRPRPRPCMDPRP | 0.714
2 | RRIRARPPRLPRPRPRPIKNPRP | 0.00937
3 | RRIRARPPRLPRPRPRPGHMPRP | -0.0412
4 | RRIRIRPPRLPRPRPRPQQFPRP | -0.709
5 | RRIRDRPPRLPRPRPRPQYKPRP | -0.121
6 | RRIRHRPPRLPRPRPRPVLDPRP | -0.116
7 | RRIRMRPPRLPRPRPRPGNGPRP | 0.885
8 | RRIRHRPPRLPRPRPRPVELPRP | 0.115
9 | RRIRERPPRLPRPRPRPEKTPRP | -0.031
10 | RRIRNRPPRLPRPRPRPWRTPRP | -0.323
11 | RRIRTRPPRLPRPRPRPLSCPRP | -0.000228
12 | RRIRARPPRLPRPRPRPIEKPRP | 0.15
13 | RRIRGRPPRLPRPRPRPHAPPRP | 1.23
14 | RRIRARPPRLPRPRPRPVLWPRP | 2.26
15 | RRIRYRPPRLPRPRPRPDFNPRP | -1.62
16 | RRIRPRPPRLPRPRPRPDCGPRP | 0.093
17 | RRIRSRPPRLPRPRPRPNPIPRP | 0.0127
18 | RRIRNRPPRLPRPRPRPNIDPRP | -0.936
19 | RRIRPRPPRLPRPRPRPWHMPRP | -0.0632
20 | RRIRQRPPRLPRPRPRPEGHPRP | 0.00489
21 | RRIRKRPPRLPRPRPRPEIWPRP | 2.45
22 | RRIRHRPPRLPRPRPRPPPYPRP | 0.00808
23 | RRIRQRPPRLPRPRPRPWPQPRP | -0.0188
24 | RRIRDRPPRLPRPRPRPNMFPRP | -0.0684
25 | RRIRSRPPRLPRPRPRPWYTPRP | 0.0361

Row | Sequence | shrunken log2 fold change
26 | RRIRHRPPRLPRPRPRPKLMPRP | 0.165
27 | RRIRFRPPRLPRPRPRPKPQPRP | 0.384
28 | RRIRGRPPRLPRPRPRPGDYPRP | 0.199
29 | RRIRMRPPRLPRPRPRPQEQPRP | 0.186
30 | RRIRERPPRLPRPRPRPGVVPRP | -0.0414
31 | RRIRWRPPRLPRPRPRPHDGPRP | -0.00986
32 | RRIRLRPPRLPRPRPRPQARPRP | 0.169
33 | RRIRMRPPRLPRPRPRPMPFPRP | 0.221
34 | RRIRERPPRLPRPRPRPMYAPRP | -0.246
35 | RRIRRRPPRLPRPRPRPDNYPRP | -0.323
36 | RRIRSRPPRLPRPRPRPQADPRP | -0.0788
37 | RRIRCRPPRLPRPRPRPPLHPRP | 0.135
38 | RRIRDRPPRLPRPRPRPTTDPRP | 0.547
39 | RRIRIRPPRLPRPRPRPIGTPRP | -0.792
40 | RRIRCRPPRLPRPRPRPQKRPRP | 0.0237
41 | RRIRRRPPRLPRPRPRPVFRPRP | 0.226
42 | RRIRERPPRLPRPRPRPLNDPRP | -0.272
43 | RRIRYRPPRLPRPRPRPNFIPRP | -1.22
44 | RRIRQRPPRLPRPRPRPPHFPRP | 0.00908
45 | RRIRGRPPRLPRPRPRPLKRPRP | 0.216
46 | RRIRNRPPRLPRPRPRPITQPRP | -0.187
47 | RRIRARPPRLPRPRPRPWATPRP | 0.494
48 | RRIRHRPPRLPRPRPRPSHKPRP | -0.718
49 | RRIRERPPRLPRPRPRPSMPPRP | -0.484
50 | RRIRRRPPRLPRPRPRPFIKPRP | -0.368

Row | Sequence | shrunken log2 fold change
51 | RRIRGRPPRLPRPRPRPKDIPRP | -0.0187
52 | RRIRQRPPRLPRPRPRPKHYPRP | -0.223
53 | RRIRHRPPRLPRPRPRPCCWPRP | 0.015
54 | RRIRTRPPRLPRPRPRPKLSPRP | 0.197
55 | RRIRGRPPRLPRPRPRPEEEPRP | 0.107
56 | RRIRCRPPRLPRPRPRPIVKPRP | 0.0118
57 | RRIRDRPPRLPRPRPRPYVQPRP | -0.13
58 | RRIRIRPPRLPRPRPRPYKLPRP | -1.04
59 | RRIRVRPPRLPRPRPRPGYSPRP | -0.553
60 | RRIRRRPPRLPRPRPRPFQRPRP | 0.608
61 | RRIRFRPPRLPRPRPRPQQHPRP | -0.38
62 | RRIRQRPPRLPRPRPRPKCMPRP | -0.551
63 | RRIRDRPPRLPRPRPRPDGPPRP | 0.0462
64 | RRIRQRPPRLPRPRPRPKECPRP | -0.0193
65 | RRIRTRPPRLPRPRPRPMAYPRP | 0.0358
66 | RRIRLRPPRLPRPRPRPTTNPRP | -0.0886
67 | RRIRNRPPRLPRPRPRPIWMPRP | 0.178
68 | RRIRNRPPRLPRPRPRPNRKPRP | 2.2
69 | RRIRIRPPRLPRPRPRPQTKPRP | 0.13
70 | RRIRERPPRLPRPRPRPWEAPRP | 0.74
71 | RRIRQRPPRLPRPRPRPPEHPRP | 0.0412
72 | RRIRCRPPRLPRPRPRPAMMPRP | -0.0414
73 | RRIRCRPPRLPRPRPRPASRPRP | 0.096
74 | RRIRHRPPRLPRPRPRPRDTPRP | 0.123
75 | RRIRARPPRLPRPRPRPDTPPRP | 0.331

Row | Sequence | shrunken log2 fold change
76 | RRIRYRPPRLPRPRPRPEMDPRP | -0.338
77 | RRIRQRPPRLPRPRPRPRSGPRP | 0.162
78 | RRIRGRPPRLPRPRPRPYIVPRP | 0.0237
79 | RRIRARPPRLPRPRPRPRTEPRP | 0.391
80 | RRIRMRPPRLPRPRPRPVIQPRP | 0.257
81 | RRIRDRPPRLPRPRPRPVLLPRP | -0.00551
82 | RRIRGRPPRLPRPRPRPVTEPRP | 0.706
83 | RRIRSRPPRLPRPRPRPILFPRP | -0.445
84 | RRIRKRPPRLPRPRPRPYDNPRP | 0.0185
85 | RRIRKRPPRLPRPRPRPQQFPRP | -0.0324
86 | RRIRKRPPRLPRPRPRPAMWPRP | 0.241
87 | RRIRTRPPRLPRPRPRPYAVPRP | -0.331
88 | RRIRCRPPRLPRPRPRPSAHPRP | -0.0707
89 | RRIRTRPPRLPRPRPRPGYIPRP | -0.288
90 | RRIRTRPPRLPRPRPRPCYHPRP | -0.637
91 | RRIRFRPPRLPRPRPRPHTWPRP | -0.415
92 | RRIRARPPRLPRPRPRPERCPRP | 1.09
93 | RRIRPRPPRLPRPRPRPEQAPRP | 0.0776
94 | RRIRWRPPRLPRPRPRPICVPRP | -0.12
95 | RRIRTRPPRLPRPRPRPISCPRP | 0.0135
96 | RRIRCRPPRLPRPRPRPPWMPRP | 0.248
97 | RRIRERPPRLPRPRPRPGWVPRP | 0.381
98 | RRIRHRPPRLPRPRPRPRDKPRP | -0.132
99 | RRIRVRPPRLPRPRPRPWACPRP | -0.191
100 | RRIRTRPPRLPRPRPRPNVCPRP | 0.128

Row | Sequence | shrunken log2 fold change
101 | RRIRNRPPRLPRPRPRPPPSPRP | 1
102 | RRIRARPPRLPRPRPRPPNEPRP | 0.716
103 | RRIRDRPPRLPRPRPRPKILPRP | 0.042
104 | RRIRRRPPRLPRPRPRPAYRPRP | 0.108
105 | RRIRCRPPRLPRPRPRPGLYPRP | -0.432
106 | RRIRSRPPRLPRPRPRPCGIPRP | -0.0619
107 | RRIRTRPPRLPRPRPRPQHSPRP | -0.183
108 | RRIRVRPPRLPRPRPRPSKNPRP | -0.364
109 | RRIRDRPPRLPRPRPRPMCYPRP | -0.0124
110 | RRIRTRPPRLPRPRPRPQNHPRP | -1.49
111 | RRIRERPPRLPRPRPRPIQEPRP | -0.0167
112 | RRIRNRPPRLPRPRPRPCRAPRP | -0.0439
113 | RRIRARPPRLPRPRPRPTGEPRP | 0.0455
114 | RRIRKRPPRLPRPRPRPCTVPRP | 0.23
115 | RRIRHRPPRLPRPRPRPGTGPRP | -0.0184
116 | RRIRFRPPRLPRPRPRPVFPPRP | -0.224
117 | RRIRGRPPRLPRPRPRPGIWPRP | 0.758
118 | RRIRHRPPRLPRPRPRPVDCPRP | -0.0119
119 | RRIRWRPPRLPRPRPRPFTAPRP | -0.0343
120 | RRIRSRPPRLPRPRPRPAFHPRP | -0.0038
121 | RRIRHRPPRLPRPRPRPYMSPRP | -0.236
122 | RRIRDRPPRLPRPRPRPNNYPRP | -0.542
123 | RRIRQRPPRLPRPRPRPMFMPRP | -0.0688
124 | RRIRTRPPRLPRPRPRPYRHPRP | -0.0901
125 | RRIRVRPPRLPRPRPRPEKRPRP | -0.218

Row | Sequence | shrunken log2 fold change
126 | RRIRERPPRLPRPRPRPDILPRP | 0.0234
127 | RRIRMRPPRLPRPRPRPNITPRP | 0.314
128 | RRIRKRPPRLPRPRPRPKFEPRP | -0.0585
129 | RRIRYRPPRLPRPRPRPCHVPRP | -0.0447
130 | RRIRYRPPRLPRPRPRPNVSPRP | -0.0178
131 | RRIRVRPPRLPRPRPRPFMWPRP | -0.327
132 | RRIRARPPRLPRPRPRPAMEPRP | 0.372
133 | RRIRTRPPRLPRPRPRPCMAPRP | -0.172
134 | RRIRNRPPRLPRPRPRPTHPPRP | -0.235
135 | RRIRMRPPRLPRPRPRPRCIPRP | -0.0309
136 | RRIRARPPRLPRPRPRPYGTPRP | -0.131
137 | RRIRKRPPRLPRPRPRPYCPPRP | 0.0231
138 | RRIRERPPRLPRPRPRPMHDPRP | -0.286
139 | RRIRMRPPRLPRPRPRPGDQPRP | 1.13
140 | RRIRPRPPRLPRPRPRPMPDPRP | 0.163
141 | RRIRSRPPRLPRPRPRPPNSPRP | -0.251
142 | RRIRYRPPRLPRPRPRPMMKPRP | -0.0161
143 | RRIRWRPPRLPRPRPRPVEHPRP | -0.287
144 | RRIRMRPPRLPRPRPRPNWFPRP | -0.607
145 | RRIRARPPRLPRPRPRPVHKPRP | 0.2
146 | RRIRKRPPRLPRPRPRPEPYPRP | -0.0587
147 | RRIRARPPRLPRPRPRPVAGPRP | 0.35
148 | RRIRRRPPRLPRPRPRPRGPPRP | 0.871
149 | RRIRHRPPRLPRPRPRPGKAPRP | -0.0115
150 | RRIRGRPPRLPRPRPRPIEIPRP | -0.0543
